Measured values from patent publication US20240425607A1, “IL-18BP ANTAGONIST ANTIBODIES AND THEIR USE IN MONOTHERAPY AND COMBINATION THERAPY IN THE TREATMENT OF CANCER” (Compugen Ltd., priority 2023, published 2024).
Each block holds one substance with its values, some of them ahead of it.

How the values were obtained:
[1] = target: human IL-18BP (recombinant, construct not stated) (human) (UniProt O95998); assay: KinExA
[2] = target: cynomolgus monkey IL-18BP (construct not stated) (cynomolgus monkey); assay: KinExA, solution equilibrium
[3] = target: human IL-18BP (recombinant, construct not stated) (human) (UniProt O95998); assay: Biacore

Sequence of human IL-18BP (recombinant, construct not stated) (human) (O95998 31-194 limits assumed): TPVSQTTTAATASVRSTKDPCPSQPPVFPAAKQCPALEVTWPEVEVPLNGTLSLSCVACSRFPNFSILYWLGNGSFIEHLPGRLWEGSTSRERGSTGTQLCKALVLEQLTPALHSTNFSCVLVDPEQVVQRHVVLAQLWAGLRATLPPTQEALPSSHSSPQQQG

Kd [1]: 0.0638 nM
Substance: anti-human IL18BP antibody clone W19089C (cat. 947703, Biolegend)

Kd [2]: 0.000345 nM
Substance: cyno IL-18 (from UniProt A0A2K5TJ84 37-193) (ligand)

Kd [3]: 0.273 nM
Substance: anti-human IL18BP antibody clone 136007 (cat. MAB1191, R&D systems)
